US20250382622A1 (UNIVERSIT T BERN, published 2025)

Biological target: T1, human Claudin-3 (human, UniProt O15551 1-220)
T1 sequence: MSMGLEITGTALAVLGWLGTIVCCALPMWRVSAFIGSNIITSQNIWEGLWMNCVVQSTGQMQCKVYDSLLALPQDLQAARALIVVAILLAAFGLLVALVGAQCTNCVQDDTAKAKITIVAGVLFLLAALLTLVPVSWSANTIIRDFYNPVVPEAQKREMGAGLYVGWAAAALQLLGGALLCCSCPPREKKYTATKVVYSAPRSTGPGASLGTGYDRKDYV
Assay: cell-based or functional assay

B1: GalNAc functionalized UB-VS003 (antibody, mouse IgG2a, kappa, V domains shown)
VH: EVQLQQSGPELVKPGGSMKISCKASGYSFTGYTMNWVKQSHGKNLEWIGLINPYNDGTNYNQKFKGKATLTVDKSSSTAYMELLSLTSEDSAVYYCSKKGGGYGGTWFAYWGQGTLVTVSA
VL: DIVMSQSPSSLAVSVGEKVTMSCKSSPSLLYSNNQKNYLAWYQQKPGQSPKLLIYWASTRESGVPDRFTGSGSGTDFTLTISSVKAEDLAVYYCQQYYSFPYTFGGGTKLEIKR
modifications: reacted with 25 equivalents of DBCO-PEG4-NHS, then with 100 equivalents of Trebler GalNAc-Azide; modified residues and chain not stated
claudin-3/beta-actin ratio by western blot, human hepatocytes, 24 h, 1 nM antibody: ~45 % of control | claudin-3/beta-actin ratio by western blot, human hepatocytes, 24 h, 30 nM antibody: ~30 % of control | claudin-3/beta-actin ratio by western blot, human hepatocytes, 24 h, 100 nM antibody: ~10 % of control
